{"source": "paper PMC5027247", "about": "“Structural insights into the interaction and disease mechanism of neurodegenerative disease-associated optineurin and TBK1 proteins” (Nature Communications, 2016)", "binders": {"B1": {"name": "Trx-His-tagged TBK1 CTD (residues 677–729) (domain or fragment, human, UniProt Q9UHD2 677-729, looked up)", "chain": "YPSSNTLVEMTLGMKKLKEEMEGVVKELAENNHILERFGSLTMDGGLRNVDCL", "notes": "source: E. coli BL21 (DE3), purified (Ni-NTA, size-exclusion chromatography); not shown: Trx, N-terminal, kept; His6, N-terminal, kept"}, "B2": {"name": "TBK1 CTD (residues 677–729) (domain or fragment, human, UniProt Q9UHD2 677-729, looked up)", "chain": "B1 chain", "notes": "For the crystal with NAP1 TBD it was made as a NAP1(215–254)-TEV site-TBK1 CTD fusion that was cut with 3C and TEV; not shown: Trx-His6 (pET-32M) or GST (pET-GST), N-terminal, cleaved"}, "B3": {"name": "NAP1 TBD (residues 215–254) (domain or fragment, human, UniProt Q9H6S1 215-254, looked up)", "chain": "SSDNMQHAYWELKREMSNLHLVTQVQAELLRKLKTSTAIK", "notes": "For the crystal it was made as a NAP1(215–254)-TEV site-TBK1 CTD fusion that was cut with 3C and TEV; also called NAP1(215–254); not shown: Trx-His6 (pET-32M) or GST (pET-GST), N-terminal, cleaved"}, "B4": {"name": "TBK1 CTD(E696K) (domain or fragment, human, UniProt Q9UHD2 677-729, looked up)", "chain": "B1 chain with E20K", "notes": "also called TBK1 E696K mutant; not shown: Trx-His6 (pET-32M) or GST (pET-GST), N-terminal, cleaved"}, "B5": {"name": "OPTN(1–119) E50K mutant (domain or fragment, human, UniProt Q96CV9 1-119, looked up)", "chain": "MSHQPLSCLTEKEDSPSESTGNGPPHLAHPNLDTFTPEELLQQMKELLTKNHQLKEAMKLNNQAMKGRFEELSAWTEKQKEERQFFEIQSKEAKERLMALSHENEKLKEELGKLKGKSE", "notes": "not shown: Trx-His6 (pET-32M) or GST (pET-GST), N-terminal, cleaved"}, "B6": {"name": "OPTN(26–103) (domain or fragment, human, UniProt Q96CV9 26-103, looked up)", "chain": "HLAHPNLDTFTPEELLQQMKELLTENHQLKEAMKLNNQAMKGRFEELSAWTEKQKEERQFFEIQSKEAKERLMALSHE", "notes": "Forms a dimer in the crystal of the complex with TBK1 CTD; also called short OPTN fragment; not shown: Trx-His6 (pET-32M) or GST (pET-GST), N-terminal, cleaved"}, "B7": {"name": "OPTN(26–103) E50K (domain or fragment, human, UniProt Q96CV9 26-103, looked up)", "chain": "B6 chain with E25K", "notes": "as for B5"}}, "key": {"[1]": {"target": "T1, GST-tagged OPTN(26–119) M44Q (human, UniProt Q96CV9 26-119, M44Q)", "T1 construct": "source: E. coli BL21 (DE3), purified (glutathione sepharose 4B, size-exclusion chromatography); not shown: GST, N-terminal, kept", "assay": "pull-down; GST-tagged OPTN and Trx-His-tagged TBK1 mixed at 1:4, glutathione sepharose 4B beads; 50 mM Tris pH 7.5, 100 mM NaCl, 1 mM DTT, 1 mM EDTA; Coomassie or anti-His blot", "conditions": "both partners purified"}, "[2]": {"target": "T2, GST-tagged OPTN(26–119) L47Q (human, UniProt Q96CV9 26-119, L47Q)", "T2 construct": "source: E. coli BL21 (DE3), purified (glutathione sepharose 4B, size-exclusion chromatography); not shown: GST, N-terminal, kept", "assay": "pull-down; GST-tagged OPTN and Trx-His-tagged TBK1 mixed at 1:4, glutathione sepharose 4B beads; 50 mM Tris pH 7.5, 100 mM NaCl, 1 mM DTT, 1 mM EDTA; Coomassie or anti-His blot", "conditions": "both partners purified"}, "[3]": {"target": "T3, GST-tagged OPTN(26–119) L54Q (human, UniProt Q96CV9 26-119, L54Q)", "T3 construct": "source: E. coli BL21 (DE3), purified (glutathione sepharose 4B, size-exclusion chromatography); not shown: GST, N-terminal, kept", "assay": "pull-down; GST-tagged OPTN and Trx-His-tagged TBK1 mixed at 1:4, glutathione sepharose 4B beads; 50 mM Tris pH 7.5, 100 mM NaCl, 1 mM DTT, 1 mM EDTA; Coomassie or anti-His blot", "conditions": "both partners purified"}, "[4]": {"target": "T4, OPTN(26–119) (human, UniProt Q96CV9 26-119)", "T4 construct": "A Se-Met labelled form was used for the 2.5 Å crystal structure with TBK1 CTD; also called OPTN NTD; not shown: Trx-His6 (pET-32M) or GST (pET-GST), N-terminal, cleaved", "assay": "ITC; 25 °C; 50 mM Tris pH 7.5, 100 mM NaCl, 1 mM EDTA, 1 mM DTT; 1 mM TBK1 fragment in the syringe, 0.1 mM OPTN or NAP1 fragment in the cell; one-site binding model", "conditions": "both partners purified"}, "[5]": {"target": "T5, OPTN(26–119) E50K (human, UniProt Q96CV9 26-119, E50K)", "T5 construct": "also called OPTN E50K mutant; not shown: Trx-His6 (pET-32M) or GST (pET-GST), N-terminal, cleaved", "assay": "ITC; 25 °C; 50 mM Tris pH 7.5, 100 mM NaCl, 1 mM EDTA, 1 mM DTT; 1 mM TBK1 fragment in the syringe, 0.1 mM OPTN or NAP1 fragment in the cell; one-site binding model", "conditions": "both partners purified"}, "[6]": {"target": "T6, OPTN(1–119) (human, UniProt Q96CV9 1-119)", "T6 construct": "not shown: Trx-His6 (pET-32M) or GST (pET-GST), N-terminal, cleaved", "T6 sequence (Q96CV9 1-119)": "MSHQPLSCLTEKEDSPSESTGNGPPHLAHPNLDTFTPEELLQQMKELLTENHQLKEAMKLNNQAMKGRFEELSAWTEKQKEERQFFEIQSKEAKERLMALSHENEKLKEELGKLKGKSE", "assay": "ITC; 25 °C; 50 mM Tris pH 7.5, 100 mM NaCl, 1 mM EDTA, 1 mM DTT; 1 mM TBK1 fragment in the syringe, 0.1 mM OPTN or NAP1 fragment in the cell; one-site binding model", "conditions": "both partners purified"}, "[7]": {"target": "the molecule itself", "assay": "crystal structure; NAP1 TBD/TBK1 CTD complex made as a fusion through a TEV site and cut with 3C and TEV; 1% tryptone, 0.05 M HEPES pH 7.0, 12% PEG 3350, 16 °C; 1.5 Å"}, "[8]": {"target": "B4", "assay": "ITC; 25 °C; 50 mM Tris pH 7.5, 100 mM NaCl, 1 mM EDTA, 1 mM DTT; 1 mM TBK1 fragment in the syringe, 0.1 mM OPTN or NAP1 fragment in the cell; one-site binding model", "conditions": "both partners purified"}, "[9]": {"target": "B2", "assay": "ITC; 25 °C; 50 mM Tris pH 7.5, 100 mM NaCl, 1 mM EDTA, 1 mM DTT; 1 mM TBK1 fragment in the syringe, 0.1 mM OPTN or NAP1 fragment in the cell; one-site binding model", "conditions": "both partners purified"}, "[10]": {"target": "the molecule itself", "assay": "SEC-MALS; 100 μl at 20 μM on Superose 12 10/300 GL; 50 mM Tris-HCl, 100 mM NaCl, 1 mM DTT, 1 mM EDTA, pH 7.5"}, "[11]": {"target": "the molecule itself", "assay": "crystal structure; OPTN(26–103) or OPTN(26–103) E50K with TBK1 CTD; 0.1 M MES pH 6.0, 14% PEG 4000, 16 °C; 2.05 Å and 2.5 Å"}}, "note": "Substitutions are numbered along the chain they refer to. Names and notes keep the numbering of the source."}
{"binder": "B1", "values": [{"measurement": "binding result", "setting": "[1]", "value": "binds"}, {"measurement": "binding result", "setting": "[2]", "value": "binds"}, {"measurement": "binding result", "setting": "[3]", "value": "binds"}]}
{"binder": "B2", "values": [{"measurement": "Kd", "setting": "[4]", "value": "~2500", "unit": "nM"}, {"measurement": "stoichiometry N", "setting": "[4]", "value": 1.15}, {"measurement": "fold increase of binding affinity against the wild-type OPTN", "setting": "[5]", "value": "~43", "unit": "fold"}, {"measurement": "Kd", "setting": "[6]", "value": "~2500", "unit": "nM"}, {"measurement": "binding result", "setting": "[7]", "value": "binds"}]}
{"binder": "B3", "values": [{"measurement": "binding result", "setting": "[8]", "value": "binds"}, {"measurement": "Kd", "setting": "[9]", "value": "~720", "unit": "nM"}]}
{"binder": "B4", "values": [{"measurement": "stoichiometry N", "setting": "[4]", "value": 0.58}]}
{"binder": "B5", "values": [{"measurement": "stoichiometry N", "setting": "[10]", "value": 4}]}
{"binder": "B6", "values": [{"measurement": "binding result", "setting": "[11]", "value": "binds"}]}
{"binder": "B7", "values": [{"measurement": "binding result", "setting": "[11]", "value": "binds"}]}
